Key:
[1] = molecular target: SORLA dimer of SORLA-V1 and SORLA-V2 with reconstituted Venus (human) (UniProt Q92673); test: co-IP
[2] = molecular target: PA-tagged SORLA VPS10p-domain (1 to 753), T659C mutant (human) (UniProt Q92673); test: cross-linking

Sequence of UniProt Q92673 (Q92673 82-2214, chain 1 of 2): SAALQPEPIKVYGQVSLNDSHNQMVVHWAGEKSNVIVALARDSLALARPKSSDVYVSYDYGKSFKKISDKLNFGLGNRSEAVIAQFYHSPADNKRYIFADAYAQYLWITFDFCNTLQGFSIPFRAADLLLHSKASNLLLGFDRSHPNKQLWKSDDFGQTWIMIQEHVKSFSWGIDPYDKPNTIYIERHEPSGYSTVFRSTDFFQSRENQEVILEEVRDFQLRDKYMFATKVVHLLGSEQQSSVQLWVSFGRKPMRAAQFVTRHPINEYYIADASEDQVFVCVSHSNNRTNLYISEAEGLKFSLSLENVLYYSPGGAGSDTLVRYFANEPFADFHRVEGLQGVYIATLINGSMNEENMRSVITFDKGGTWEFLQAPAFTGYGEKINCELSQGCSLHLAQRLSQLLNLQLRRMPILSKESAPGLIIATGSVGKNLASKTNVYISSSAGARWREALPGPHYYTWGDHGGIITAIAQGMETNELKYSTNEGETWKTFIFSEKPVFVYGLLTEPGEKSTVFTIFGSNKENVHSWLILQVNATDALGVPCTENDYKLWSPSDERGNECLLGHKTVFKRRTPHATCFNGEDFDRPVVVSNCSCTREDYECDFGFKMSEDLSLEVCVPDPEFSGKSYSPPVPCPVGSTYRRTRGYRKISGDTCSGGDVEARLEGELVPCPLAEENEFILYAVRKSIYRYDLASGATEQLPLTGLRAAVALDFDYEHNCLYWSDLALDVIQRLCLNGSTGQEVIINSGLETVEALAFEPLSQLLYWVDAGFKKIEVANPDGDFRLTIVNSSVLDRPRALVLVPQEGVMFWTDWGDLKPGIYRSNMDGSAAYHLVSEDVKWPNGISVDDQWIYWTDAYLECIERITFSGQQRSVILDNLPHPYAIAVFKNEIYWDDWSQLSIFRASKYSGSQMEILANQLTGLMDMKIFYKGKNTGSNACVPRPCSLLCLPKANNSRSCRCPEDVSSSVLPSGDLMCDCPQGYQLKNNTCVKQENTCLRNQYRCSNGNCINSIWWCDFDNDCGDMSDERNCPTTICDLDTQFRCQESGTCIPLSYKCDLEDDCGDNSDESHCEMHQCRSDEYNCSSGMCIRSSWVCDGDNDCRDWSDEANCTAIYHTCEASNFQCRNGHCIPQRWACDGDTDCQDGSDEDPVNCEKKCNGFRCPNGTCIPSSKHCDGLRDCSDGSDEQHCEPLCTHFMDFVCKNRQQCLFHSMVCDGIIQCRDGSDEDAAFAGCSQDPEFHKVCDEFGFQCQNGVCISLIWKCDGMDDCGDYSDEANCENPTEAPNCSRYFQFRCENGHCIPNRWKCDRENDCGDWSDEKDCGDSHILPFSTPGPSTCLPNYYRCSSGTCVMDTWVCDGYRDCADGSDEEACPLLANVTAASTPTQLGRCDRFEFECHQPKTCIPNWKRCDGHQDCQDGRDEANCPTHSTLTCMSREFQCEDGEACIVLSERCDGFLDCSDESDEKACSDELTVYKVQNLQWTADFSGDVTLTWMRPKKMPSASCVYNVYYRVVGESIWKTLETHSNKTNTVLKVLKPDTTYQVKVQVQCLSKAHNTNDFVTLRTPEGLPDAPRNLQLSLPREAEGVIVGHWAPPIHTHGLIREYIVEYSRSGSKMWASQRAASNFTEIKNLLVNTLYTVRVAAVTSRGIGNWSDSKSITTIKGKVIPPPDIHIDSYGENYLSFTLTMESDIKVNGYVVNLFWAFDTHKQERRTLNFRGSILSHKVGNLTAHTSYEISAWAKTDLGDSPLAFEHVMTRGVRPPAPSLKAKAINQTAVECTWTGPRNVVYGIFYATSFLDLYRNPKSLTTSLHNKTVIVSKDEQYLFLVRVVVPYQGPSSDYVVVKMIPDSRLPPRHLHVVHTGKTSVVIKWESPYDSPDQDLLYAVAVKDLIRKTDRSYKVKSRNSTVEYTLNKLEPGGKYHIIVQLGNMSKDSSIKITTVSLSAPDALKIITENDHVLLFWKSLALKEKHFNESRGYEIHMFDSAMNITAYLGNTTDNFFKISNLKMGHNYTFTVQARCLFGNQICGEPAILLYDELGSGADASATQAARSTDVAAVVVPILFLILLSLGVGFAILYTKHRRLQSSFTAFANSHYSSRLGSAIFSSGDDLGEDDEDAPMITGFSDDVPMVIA
Sequence of UniProt Q92673 (Q92673 82-2214, chain 2 of 2): as the sequence (Q92673 82-2214, chain 1 of 2) above

| co-IP product relative to total input [1] | stoichiometry N [2] | Substance |
| --- | --- | --- |
| 6% |  | VPS26b subunit of retromer (from UniProt Q4G0F5 1-336) (natural protein) |
|  | 2 | PA-tagged SORLA VPS10p-domain (1 to 753), T659C mutant (from UniProt Q92673 29-753) (domain or fragment) |

— publication PMC9942828
